In US20130045184A1 (published 2013):

Target: T1, sperm FA-1 derived peptide (peptide 1, 35 residue peptide designed from antigen FA-1), biotinylated (biotin at the C-terminus, printed as '(SEQ ID NO: 1) - - - Biotin')
T1 peptide: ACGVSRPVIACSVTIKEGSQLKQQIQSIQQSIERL
Test: phage ELISA, anti-phage HRP antibody (antibody to PVIII), OD
Experimental: Infected E. coli TG-1 with panning output phages (as described above) were plated to yield individual colonies. These colonies were picked into 100 μl YTAG media in wells of a flat bottom sterile 96-well plate and grown at 30° C. shaker at 150 RPM ON. 10 μl of phage were transferred into a fresh 96-well plate containing 90 μl of YTAG+2.5 μl /ml (5×10⁸ CFU) of M13KO7 helper phage and grown at 37° C. without shaking for 30 min following shaking at 150 RPM for 30 minutes. Plates were centrifuged at 4000 RPM for 5 minutes at 14° C. and the supernatant was discarded. 200 μl /well of YTAK (with Kanamycin) was added and the plate was left to grow at 30° C. shaker at 150 RPM overnight. The bacteria plate was then centrifuged at 4000 RPM for 5 minutes at 4° C. and 100 μl of the supernatant mixed with 100 μl of PBST was used for the ELISA.
100 μl /well of antigen and control antigen were plated in ELISA plates at 4° C. overnight to coat the plates. The ELISA plates were washed once with washing buffer (300 μl/well of PBST) and blocked with 3% milk/PBS for 1 hr at room temperature (RT). […] The reaction was then stopped with […] of 1 M HCL solution plates were read plates at […]. Detection was achieved using a horseradish peroxidase (HRP)-tagged anti-phage antibody and the color resulting from the substrate-enzyme reaction was read with an automated ELISA reader.

B1: scFv J102 (scFv)
scFv: MAEVQLLESGGGLVQPGGSLRLSCAASGFTFSDHDMHWVRQAPGKGLEWVSGISWKSDSMAYRDSVKGRFTISRDNSKNTLYLQMNSLRAEDTAVYYCARDQEHFDFDYWGQGTLVTVSSGSAGGGGSGGGGSGGGGSDIVLTQPPSASGTPGQRVTISCSGSSSNLGSNTVNWYQQLPGKAPKLLIYDNNQRPSGVPDRFSGSKSGTSASLAISGLRSEDEADYYCAAWDDSLSGLVFGTGTKLTVL
notes: Human-derived scFv from a phage display library; also called Clone J102
- binding result: binds
